Laboratory results reported in patent publication US7727960B2, “C5a receptor antagonists” (Jerini AG, priority 2003, dated 2010).
Starred links: 1 amine or outer side, 2 acyl side, 3 side chain; linkers in the order of their positions; H or OH if unused. Positions of bridges follow the written chain, without caps; N, C: chain ends. Non-standard residues stand in square brackets, D forms with d. No end group written: not given here. 2‑Acetamido‑1‑Methyl‑Glucuronyl = 2-Acetamido-1-methyl-glucuronyl N-terminal group; Ecp = His(tau-4-methoxybenzyl), COc1ccc(Cn2cnc(C[C@H](N[*:1])C(=O)[*:2])c2)cc1; Edn = Cys(CH2-CH2-4-pyridyl), O=C([C@H](CSCCc1ccncc1)N[*:1])[*:2]; XX1 = 2-Amino-3-(4-piperidinyl)propionic acid; Ebd = Cys(Et), CCSC[C@H](N[*:1])C(=O)[*:2]; Phe(4-Me) = Cc1ccc(C[C@H](N)C(=O)O)cc1; 1Nal = N[C@@H](Cc1cccc2ccccc12)C(=O)O; 2Nal = N[C@@H](Cc1ccc2ccccc2c1)C(=O)O; XX2 = 4-guanidyl-piperidinyl-alanine; d(hLeu) = CC(C)CC[C@@H](N)C(=O)O; 4Pal = N[C@@H](Cc1ccncc1)C(=O)O; 2Thi = N[C@@H](Cc1cccs1)C(=O)O; Cha = N[C@@H](CC1CCCCC1)C(=O)O; dCha = N[C@H](CC1CCCCC1)C(=O)O; dChg = N[C@@H](C(=O)O)C1CCCCC1; Chg = N[C@H](C(=O)O)C1CCCCC1; Phg = N[C@H](C(=O)O)c1ccccc1; hLeu = CC(C)CC[C@H](N)C(=O)O; dNle = CCCC[C@@H](N)C(=O)O; Eag = 2-Propargylglycine; Nle = CCCC[C@H](N)C(=O)O; Orn = NCCC[C@H](N)C(=O)O; Dab = NCC[C@H](N)C(=O)O

B1: Ac-Phe-[Orn-Pro-cha-Trp-nle] (peptide)
peptide: Ac-F[Orn]P[dCha]W[dNle]
modifications: lactam 2-C (inferred)
B2: Ac-Phe-Orn-Ser-cha-Trp-Phe-OH (peptide)
peptide: Ac-F[Orn]S[dCha]WF-OH
SMILES: CC(=O)N[C@@H](Cc1ccccc1)C(=O)N[C@@H](CCCN)C(=O)N[C@@H](CO)C(=O)N[C@H](CC1CCCCC1)C(=O)N[C@@H](Cc1c[nH]c2ccccc12)C(=O)N[C@@H](Cc1ccccc1)C(=O)O
B3: Ac-Phe-[Orn-Pro-cha-Trp-Ala] (peptide)
peptide: Ac-F[Orn]P[dCha]WA
modifications: lactam (positions not given here); not fully specified (bridges); printed as Ac-Phe-[Orn-Pro-cha-Trp-Ala]
B4: Ac-Phe-[Orn-Pro-cha-Trp-2Ni] (peptide)
peptide: Ac-F[Orn]P[dCha]W[2Nal]
modifications: lactam (positions not given here); not fully specified (bridges); printed as Ac-Phe-[Orn-Pro-cha-Trp-2Ni]
B5: Ac-Phe-[Orn-Pro-cha-Trp-XX2] (peptide)
peptide: Ac-F[Orn]P[dCha]W[XX2]
modifications: lactam (positions not given here); not fully specified (bridges); printed as Ac-Phe-[Orn-Pro-cha-Trp-XX2]
B6: Ac-Phe-[Orn-Pro-cha-Trp-Tyr] (peptide)
peptide: Ac-F[Orn]P[dCha]WY
modifications: lactam (positions not given here); not fully specified (bridges); printed as Ac-Phe-[Orn-Pro-cha-Trp-Tyr]
B7: Ac-Phe-[Orn-Pro-cha-Trp-Phe] (peptide)
peptide: Ac-F[Orn]P[dCha]WF
modifications: lactam (positions not given here); not fully specified (bridges); printed as Ac-Phe-[Orn-Pro-cha-Trp-Phe]
B8: Ac-Phe-[Orn-Pro-cha-Trp-Ebd] (peptide)
peptide: Ac-F[Orn]P[dCha]W[Ebd]
modifications: lactam (positions not given here); not fully specified (bridges); printed as Ac-Phe-[Orn-Pro-cha-Trp-Ebd]
B9: X-Phe-[Orn-Pro-cha-Trp-Nle]; X = 2-Acetamido-1-Methyl-Glucuronyl (peptide)
peptide: {2‑Acetamido‑1‑Methyl‑Glucuronyl}-F[Orn]P[dCha]W[Nle]
modifications: lactam 2-C
B10: Ac-Phe-[Orn-Pro-cha-Trp-Arg(Me2)] (peptide)
peptide: FXPXWR
modifications: not fully specified; Ac-; Orn2; cha4 (D); Arg(Me2)6; cyclic [2-6]
B11: Ac-Phe-[Orn-Pro-cha-Trp-Har] (peptide)
peptide: FXPXWX
modifications: not fully specified; Ac-; Orn2; cha4 (D); Har6; cyclic [2-6]
B12: Ac-Phe-[Orn-Pro-cha-Trp-Arg(CH2CH2)] (peptide)
peptide: FXPXWR
modifications: not fully specified; Ac-; Orn2; cha4 (D); Arg(CH2CH2)6; cyclic [2-6]
B13: Ac-Phe-[Orn-Pro-cha-Trp-Cit] (peptide)
peptide: FXPXWX
modifications: not fully specified; Ac-; Orn2; cha4 (D); Cit6; cyclic [2-6]
B14: Ac-Phe-Orn-Pro-hch-Trp-Phe-OH (peptide)
peptide: Ac-F[Orn]P[dHch]WF-OH
B15: Ac-Phe-Orn-Pro-cha-Trp-1Ni-NH2 (peptide)
peptide: Ac-F[Orn]P[dCha]W[1Nal]-NH2
B16: Ac-Phe-[Orn-Pro-cha-Trp-Hle] (peptide)
peptide: Ac-F[Orn]P[dCha]W[hLeu]
modifications: lactam (positions not given here); not fully specified (bridges); printed as Ac-Phe-[Orn-Pro-cha-Trp-Hle]
B17: Ac-Phe-[Orn-Pro-cha-Trp-Chg] (peptide)
peptide: Ac-F[Orn]P[dCha]W[Chg]
modifications: lactam (positions not given here); not fully specified (bridges); printed as Ac-Phe-[Orn-Pro-cha-Trp-Chg]
B18: Ac-Phe-[Orn-Pro-cha-Trp-XX1] (peptide)
peptide: Ac-F[Orn]P[dCha]W[XX1]
modifications: lactam (positions not given here); not fully specified (bridges); printed as Ac-Phe-[Orn-Pro-cha-Trp-XX1]
B19: Ac-Phe-[Orn-Pro-hle-Trp-Nle] (peptide)
peptide: Ac-F[Orn]P[d(hLeu)]W[Nle]
modifications: lactam 2-C (inferred)
B20: Ac-Phe-[Orn-Pro-cha-Trp-Cha] (peptide)
peptide: Ac-F[Orn]P[dCha]W[Cha]
modifications: lactam (positions not given here); not fully specified (bridges); printed as Ac-Phe-[Orn-Pro-cha-Trp-Cha]
B21: Ph-CH(OH)-CH2-CO-[Orn-Pro-cha-Trp-Nle] (peptide)
peptide: {Ph‑CH(OH)‑CH2‑CO}-[Orn]P[dCha]W[Nle]
modifications: lactam 1-C
B22: Ac-Phe-[Orn-Pro-cha-Trp-Pmf] (peptide)
peptide: Ac-F[Orn]P[dCha]W[Phe(4-Me)]
modifications: lactam (positions not given here); not fully specified (bridges); printed as Ac-Phe-[Orn-Pro-cha-Trp-Pmf]
B23: Ph-CH2-[Orn-Pro-cha-Trp-Phe] (peptide)
peptide: {Ph‑CH2}-[Orn]P[dCha]WF
modifications: lactam 1-C
B24: Ac-Phe-Orn-Pro-cha-Trp-Phg-NH2 (peptide)
peptide: Ac-F[Orn]P[dCha]W[Phg]-NH2
B25: Ac-Phe-[Orn-Pro-cha-Trp-Dab] (peptide)
peptide: Ac-F[Orn]P[dCha]W[Dab]
modifications: lactam (positions not given here); not fully specified (bridges); printed as Ac-Phe-[Orn-Pro-cha-Trp-Dab]
B26: Ph-CH2-[Orn-Pro-cha-Trp-Nle] (peptide)
peptide: {Ph‑CH2}-[Orn]P[dCha]W[Nle]
modifications: lactam 1-C
B27: Ac-Phe-Orn-Pro-cha-Trp-Thi-NH2 (peptide)
peptide: Ac-F[Orn]P[dCha]W[2Thi]-NH2
B28: Ac-Phe-[Orn-Pro-cha-Trp-Met] (peptide)
peptide: Ac-F[Orn]P[dCha]WM
modifications: lactam (positions not given here); not fully specified (bridges); printed as Ac-Phe-[Orn-Pro-cha-Trp-Met]
B29: Ac-Phe-[Orn-Pro-cha-Trp-Edn] (peptide)
peptide: Ac-F[Orn]P[dCha]W[Edn]
modifications: lactam (positions not given here); not fully specified (bridges); printed as Ac-Phe-[Orn-Pro-cha-Trp-Edn]
B30: Ac-Phe-[Orn-Pro-cha-Trp-Eag] (peptide)
peptide: Ac-F[Orn]P[dCha]W[Eag]
modifications: lactam (positions not given here); not fully specified (bridges); printed as Ac-Phe-[Orn-Pro-cha-Trp-Eag]
B31: Ac-Phe-[Orn-Pro-cha-Trp-Thi] (peptide)
peptide: Ac-F[Orn]P[dCha]W[2Thi]
modifications: lactam (positions not given here); not fully specified (bridges); printed as Ac-Phe-[Orn-Pro-cha-Trp-Thi]
B32: Ac-Phe-[Orn-Pro-cha-Trp-Leu] (peptide)
peptide: Ac-F[Orn]P[dCha]WL
modifications: lactam (positions not given here); not fully specified (bridges); printed as Ac-Phe-[Orn-Pro-cha-Trp-Leu]
B33: Ac-Phe-Orn-Pro-hch-Trp-Phe-OH (peptide)
peptide: Ac-F[Orn]P[dHch]WF-OH
B34: Ac-Phe-Orn-Pro-chg-Trp-Phe-OH (peptide)
peptide: Ac-F[Orn]P[dChg]WF-OH
B35: Ac-Phe-[Orn-Pro-cha-Trp-Ecp] (peptide)
peptide: Ac-F[Orn]P[dCha]W[Ecp]
modifications: lactam (positions not given here); not fully specified (bridges); printed as Ac-Phe-[Orn-Pro-cha-Trp-Ecp]
B36: Ac-Phe-[Orn-Pro-cha-Trp-Phe(4-Amidin)] (peptide)
peptide: Ac-F[Orn]P[dCha]W[Phe(4-Amidin)]
modifications: lactam (positions not given here); not fully specified (bridges); printed as Ac-Phe-[Orn-Pro-cha-Trp-Phe(4-Amidin)]
B37: Ac-Phe-[Orn-Pro-cha-Trp-Ppa] (peptide)
peptide: Ac-F[Orn]P[dCha]W[4Pal]
modifications: lactam (positions not given here); not fully specified (bridges); printed as Ac-Phe-[Orn-Pro-cha-Trp-Ppa]

Target: T1, human C5aR (CD88) (human, UniProt P21730 1-350)
T1 sequence (looked up): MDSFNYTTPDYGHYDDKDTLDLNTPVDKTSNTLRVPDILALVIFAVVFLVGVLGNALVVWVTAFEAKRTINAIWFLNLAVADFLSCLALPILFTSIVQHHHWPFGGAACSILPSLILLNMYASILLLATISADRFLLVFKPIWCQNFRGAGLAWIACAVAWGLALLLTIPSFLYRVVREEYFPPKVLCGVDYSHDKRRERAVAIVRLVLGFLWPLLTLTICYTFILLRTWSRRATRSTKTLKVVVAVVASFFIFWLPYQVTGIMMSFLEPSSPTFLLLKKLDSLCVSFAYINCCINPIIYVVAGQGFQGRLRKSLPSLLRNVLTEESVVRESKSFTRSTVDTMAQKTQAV
Assay: cell-based or functional assay

| Binder | IC50 activity group, enzyme release assay |
| --- | --- |
| B1 | ≤ 0.2 µM |
| B2 | ≤ 2 µM |
| B3 | > 2 µM |
| B4 | ≤ 0.2 µM |
| B5 | > 2 µM |
| B6 | ≤ 0.05 µM |
| B7 | ≤ 0.05 µM |
| B8 | ≤ 0.05 µM |
| B9 | ≤ 0.05 µM |
| B10 | ≤ 0.2 µM |
| B11 | ≤ 2 µM |
| B12 | ≤ 2 µM |
| B13 | ≤ 2 µM |
| B14 | ≤ 0.2 µM |
| B15 | ≤ 0.05 µM |
| B16 | ≤ 0.05 µM |
| B17 | ≤ 0.2 µM |
| B18 | > 2 µM |
| B19 | ≤ 0.05 µM |

| Binder | IC50 activity group, enzyme release assay |
| --- | --- |
| B20 | ≤ 0.2 µM |
| B21 | ≤ 0.05 µM |
| B22 | ≤ 0.05 µM |
| B23 | ≤ 0.05 µM |
| B24 | ≤ 2 µM |
| B25 | ≤ 0.2 µM |
| B26 | ≤ 0.05 µM |
| B27 | ≤ 0.2 µM |
| B28 | ≤ 0.2 µM |
| B29 | ≤ 2 µM |
| B30 | ≤ 0.01 µM |
| B31 | ≤ 0.05 µM |
| B32 | ≤ 0.2 µM |
| B33 | ≤ 0.2 µM |
| B34 | ≤ 2 µM |
| B35 | ≤ 2 µM |
| B36 | ≤ 2 µM |
| B37 | ≤ 0.2 µM |
